Changes are numbered by the printed parent chain.
B1: mAb10921 (antibody, V domains shown)
VH: EVQLVESGGGLVQPGGSLRLSCAASGITVSSNYMSWVRQAPGKGLEWVSVIYSGGSTFYADSVKGRFTISRHNSKNTLYLQMNSLRAEDTAVYYCARERNFDAFDIWGQGTMVTVSS
VL: DIQMTQSPSSVSASVGDRVTITCRASQGISSWLAWYQQKPGKAPKLLIYAASSLQSGVPSRFSGSGSGTDFTLTISSLQPEDFATYYCQQANSFPLFTFGPGTKVDIKR
B2: mAb10915 (antibody, V domains shown)
VH: EVQLVESGGGLVQPGGSLRLSCAASGFTVSSNYMNWVRQAPGKGLEWVSVIYSGGSTFYADSVKGRFTISRHNSKNTLYLQMNSLRPEDTAVYYCARDLGGYFDYWGQGTLVTVSS
VL: not shown
B3: mAb10920 (antibody, V domains shown)
VH: QVQLVESGGGVVQPGRSLRLSCAASGFTFSYYGMHWVRQAPGKGLEWVAVIWYDGSNKFYADSVKGRFTISRDNSKNTLYLQMNSLRAEDTAVYYCAAARPGYYYGMDVWGQGTTVTVSS
VL: DIQMTQSPSSLSASVGDRVTITCRASQGISNYLAWFQQKPGKAPNSLIYAASSLQRGVPSKFSGSGSGTDFTLTISSLQPEDFATYYCQQYNSYPRTFGQGTKVEIKR
B4: mAb10936 (antibody, V domains shown)
VH: QVQLVESGGGVVQPGRSLRLSCAASGFTFRNYGMHWVRQAPGKGLEWVSVIWYDGSNRYYADSVKGRFTISRDTSKNTLYLQMNSLRAEDTAVYYCARDPPITGTTGGDAFDIWGQGTMVTVSS
VL: not shown
B5: mAb10937 (antibody, V domains shown)
VH: QITLKESGPTLVKPTQTLTLTCTFSGFSLSTNVVGVGWIRQPPGKALEWLALIYWNDDKRYSPSLKSRLTITKDTSKNQVVLTMTNMDPVDTATYYCAHGPTGDYFDYWGQGTLVTVSS
VL: not shown
B6: mAb10930 (antibody, V domains shown)
VH: EVQLVESGGGLVQPGRSLRLSCAASGFTFDDYAMYWVRQAPGKGLEWVSGISWNSGSIGYADSVKGRFTISRDNAKNSLYLQMNSLRAADTALYYCAKDKDWNSRGYYYYGMDVWGQGTTVTVSS
VL: not shown
B7: mAb10934 (antibody, V domains shown)
VH: not shown
VL: DIQMTQSPSSLSASVGDRVTITCQASQDIWNYINWYQQKPGKAPKLLIYDASNLKTGVPSRFSGSGSGTDFTFTISSLQPEDIATYYCQQHDDLPPTFGQGTKVEIKR
B8: mAb10938 (antibody, V domains shown)
VH: EVQLVESGGGLVQPGGSLRLSCAVSGFTVSSNYMSWVRQAPGKGLEWVSLIYSGGSTFYADSVKGRFTISRHNSKNTLYLQMNSLRAEDTAVYYCAREGGYSYDYNYWGQGTLVTVSS
VL: B7 VL with W30R, I33L, K55E, S65I, H91Y, D93N, P96I, K103R, V104L
B9: mAb10935 (antibody, V domains shown)
VH: EVQLVESGGGLVQPGGSLRLSCAASGFTVSSNYMSWVRQAPGKGLEWVSLIYSGGSTYYADSVKGRFTISRHNSKNTLYLQMNSLRSEDTAVYYCARVPLGDYYYGMDVWGQGTTVTVSS
VL: B7 VL with W30N, N31K, I33L, K55E, H91S, D93N, P96L, Q100G
B10: mAb10932 (antibody, V domains shown)
VH: EVQLVESGGGLVQSGGSLRLSCAASGLTVSSNYMSWVRQAPGKGLEWVSVIYSGGSTFYSDSVKGRFTISRHNSKNTLYLQMNSLRAEDTAVYYCARARGDAFDIWGQGTMVTVSS
VL: not shown
B11: mAb10923 (antibody, V domains shown)
VH: QVQLVQSGAEVKKPGASVKVSCKASGYTFINYYIHWVRQAPGQGLEWMGWINPNSGGTNYAQKFQGRVTMTRDTSISTAYMELSRLRSDDTAVYYCAIITIFGVVTWFDPWGQGTLVTVSS
VL: not shown

Molecular target: SARS-CoV-2 RBD-hFc (SARS-CoV-2)
Experiment: Luminex beads

Binder | binding result
B1 | binds
B2 | binds
B3 | binds
B4 | binds
B5 | binds
B6 | binds
B7 | binds
B8 | binds
B9 | binds
B10 | binds
B11 | binds
